From paper PMC12262686 (bioRxiv, 2025)

B1: SPOP D77E, full-length (natural protein)
chain: MSRVPSPPPPAEMSSGPVAESWCYTQIKVVKFSYMWTINNFSFCREEMGEVIKSSTFSSGANDKLKWCLRVNPKGLEEESKDYLSLYLLLVSCPKSEVRAKFKFSILNAKGEETKAMESQRAYRFVQGKDWGFKKFIRRDFLLDEANGLLPDDKLTLFCEVSVVQDSVNISGQNTMNMVKVPECRLADELGGLWENSRFTDCCLCVAGQEFQAHKAILAARSPVFSAMFEHEMEESKKNRVEINDVEPEVFKEMMCFIYTGKAPNLDKMADDLLAAADKYALERLKVMCEDALCSNLSVENAAEILILADLHSADQLKTQAVDFINYHASDVLETSGWKSMVVSHPHLVAEAYRSLASAQCPFLGPPRKRLKQS
B2: SPOP R99W (natural protein)
chain: MSRVPSPPPPAEMSSGPVAESWCYTQIKVVKFSYMWTINNFSFCREEMGEVIKSSTFSSGANDKLKWCLRVNPKGLDEESKDYLSLYLLLVSCPKSEVWAKFKFSILNAKGEETKAMESQRAYRFVQGKDWGFKKFIRRDFLLDEANGLLPDDKLTLFCEVSVVQDSVNISGQNTMNMVKVPECRLADELGGLWENSRFTDCCLCVAGQEFQAHKAILAARSPVFSAMFEHEMEESKKNRVEINDVEPEVFKEMMCFIYTGKAPNLDKMADDLLAAADKYALERLKVMCEDALCSNLSVENAAEILILADLHSADQLKTQAVDFINYHASDVLETSGWKSMVVSHPHLVAEAYRSLASAQCPFLGPPRKRLKQS
B3: SPOP R45W (natural protein)
chain: MSRVPSPPPPAEMSSGPVAESWCYTQIKVVKFSYMWTINNFSFCWEEMGEVIKSSTFSSGANDKLKWCLRVNPKGLDEESKDYLSLYLLLVSCPKSEVRAKFKFSILNAKGEETKAMESQRAYRFVQGKDWGFKKFIRRDFLLDEANGLLPDDKLTLFCEVSVVQDSVNISGQNTMNMVKVPECRLADELGGLWENSRFTDCCLCVAGQEFQAHKAILAARSPVFSAMFEHEMEESKKNRVEINDVEPEVFKEMMCFIYTGKAPNLDKMADDLLAAADKYALERLKVMCEDALCSNLSVENAAEILILADLHSADQLKTQAVDFINYHASDVLETSGWKSMVVSHPHLVAEAYRSLASAQCPFLGPPRKRLKQS
B4: SPOP M117V (natural protein)
chain: MSRVPSPPPPAEMSSGPVAESWCYTQIKVVKFSYMWTINNFSFCREEMGEVIKSSTFSSGANDKLKWCLRVNPKGLDEESKDYLSLYLLLVSCPKSEVRAKFKFSILNAKGEETKAVESQRAYRFVQGKDWGFKKFIRRDFLLDEANGLLPDDKLTLFCEVSVVQDSVNISGQNTMNMVKVPECRLADELGGLWENSRFTDCCLCVAGQEFQAHKAILAARSPVFSAMFEHEMEESKKNRVEINDVEPEVFKEMMCFIYTGKAPNLDKMADDLLAAADKYALERLKVMCEDALCSNLSVENAAEILILADLHSADQLKTQAVDFINYHASDVLETSGWKSMVVSHPHLVAEAYRSLASAQCPFLGPPRKRLKQS
B5: SPOP R121Q (natural protein)
chain: MSRVPSPPPPAEMSSGPVAESWCYTQIKVVKFSYMWTINNFSFCREEMGEVIKSSTFSSGANDKLKWCLRVNPKGLDEESKDYLSLYLLLVSCPKSEVRAKFKFSILNAKGEETKAMESQQAYRFVQGKDWGFKKFIRRDFLLDEANGLLPDDKLTLFCEVSVVQDSVNISGQNTMNMVKVPECRLADELGGLWENSRFTDCCLCVAGQEFQAHKAILAARSPVFSAMFEHEMEESKKNRVEINDVEPEVFKEMMCFIYTGKAPNLDKMADDLLAAADKYALERLKVMCEDALCSNLSVENAAEILILADLHSADQLKTQAVDFINYHASDVLETSGWKSMVVSHPHLVAEAYRSLASAQCPFLGPPRKRLKQS
B6: SPOP W131L (natural protein)
chain: MSRVPSPPPPAEMSSGPVAESWCYTQIKVVKFSYMWTINNFSFCREEMGEVIKSSTFSSGANDKLKWCLRVNPKGLDEESKDYLSLYLLLVSCPKSEVRAKFKFSILNAKGEETKAMESQRAYRFVQGKDLGFKKFIRRDFLLDEANGLLPDDKLTLFCEVSVVQDSVNISGQNTMNMVKVPECRLADELGGLWENSRFTDCCLCVAGQEFQAHKAILAARSPVFSAMFEHEMEESKKNRVEINDVEPEVFKEMMCFIYTGKAPNLDKMADDLLAAADKYALERLKVMCEDALCSNLSVENAAEILILADLHSADQLKTQAVDFINYHASDVLETSGWKSMVVSHPHLVAEAYRSLASAQCPFLGPPRKRLKQS
B7: SPOP E47A (natural protein)
chain: MSRVPSPPPPAEMSSGPVAESWCYTQIKVVKFSYMWTINNFSFCREAMGEVIKSSTFSSGANDKLKWCLRVNPKGLDEESKDYLSLYLLLVSCPKSEVRAKFKFSILNAKGEETKAMESQRAYRFVQGKDWGFKKFIRRDFLLDEANGLLPDDKLTLFCEVSVVQDSVNISGQNTMNMVKVPECRLADELGGLWENSRFTDCCLCVAGQEFQAHKAILAARSPVFSAMFEHEMEESKKNRVEINDVEPEVFKEMMCFIYTGKAPNLDKMADDLLAAADKYALERLKVMCEDALCSNLSVENAAEILILADLHSADQLKTQAVDFINYHASDVLETSGWKSMVVSHPHLVAEAYRSLASAQCPFLGPPRKRLKQS
B8: SPOP Y87F (natural protein)
chain: MSRVPSPPPPAEMSSGPVAESWCYTQIKVVKFSYMWTINNFSFCREEMGEVIKSSTFSSGANDKLKWCLRVNPKGLDEESKDYLSLFLLLVSCPKSEVRAKFKFSILNAKGEETKAMESQRAYRFVQGKDWGFKKFIRRDFLLDEANGLLPDDKLTLFCEVSVVQDSVNISGQNTMNMVKVPECRLADELGGLWENSRFTDCCLCVAGQEFQAHKAILAARSPVFSAMFEHEMEESKKNRVEINDVEPEVFKEMMCFIYTGKAPNLDKMADDLLAAADKYALERLKVMCEDALCSNLSVENAAEILILADLHSADQLKTQAVDFINYHASDVLETSGWKSMVVSHPHLVAEAYRSLASAQCPFLGPPRKRLKQS
B9: SPOP E50K (natural protein)
chain: MSRVPSPPPPAEMSSGPVAESWCYTQIKVVKFSYMWTINNFSFCREEMGKVIKSSTFSSGANDKLKWCLRVNPKGLDEESKDYLSLYLLLVSCPKSEVRAKFKFSILNAKGEETKAMESQRAYRFVQGKDWGFKKFIRRDFLLDEANGLLPDDKLTLFCEVSVVQDSVNISGQNTMNMVKVPECRLADELGGLWENSRFTDCCLCVAGQEFQAHKAILAARSPVFSAMFEHEMEESKKNRVEINDVEPEVFKEMMCFIYTGKAPNLDKMADDLLAAADKYALERLKVMCEDALCSNLSVENAAEILILADLHSADQLKTQAVDFINYHASDVLETSGWKSMVVSHPHLVAEAYRSLASAQCPFLGPPRKRLKQS
B10: SPOP D140N (natural protein)
chain: MSRVPSPPPPAEMSSGPVAESWCYTQIKVVKFSYMWTINNFSFCREEMGEVIKSSTFSSGANDKLKWCLRVNPKGLDEESKDYLSLYLLLVSCPKSEVRAKFKFSILNAKGEETKAMESQRAYRFVQGKDWGFKKFIRRNFLLDEANGLLPDDKLTLFCEVSVVQDSVNISGQNTMNMVKVPECRLADELGGLWENSRFTDCCLCVAGQEFQAHKAILAARSPVFSAMFEHEMEESKKNRVEINDVEPEVFKEMMCFIYTGKAPNLDKMADDLLAAADKYALERLKVMCEDALCSNLSVENAAEILILADLHSADQLKTQAVDFINYHASDVLETSGWKSMVVSHPHLVAEAYRSLASAQCPFLGPPRKRLKQS
B11: SPOP V51E, full-length (natural protein)
chain: MSRVPSPPPPAEMSSGPVAESWCYTQIKVVKFSYMWTINNFSFCREEMGEEIKSSTFSSGANDKLKWCLRVNPKGLDEESKDYLSLYLLLVSCPKSEVRAKFKFSILNAKGEETKAMESQRAYRFVQGKDWGFKKFIRRDFLLDEANGLLPDDKLTLFCEVSVVQDSVNISGQNTMNMVKVPECRLADELGGLWENSRFTDCCLCVAGQEFQAHKAILAARSPVFSAMFEHEMEESKKNRVEINDVEPEVFKEMMCFIYTGKAPNLDKMADDLLAAADKYALERLKVMCEDALCSNLSVENAAEILILADLHSADQLKTQAVDFINYHASDVLETSGWKSMVVSHPHLVAEAYRSLASAQCPFLGPPRKRLKQS
B12: SPOP W131G (natural protein)
chain: MSRVPSPPPPAEMSSGPVAESWCYTQIKVVKFSYMWTINNFSFCREEMGEVIKSSTFSSGANDKLKWCLRVNPKGLDEESKDYLSLYLLLVSCPKSEVRAKFKFSILNAKGEETKAMESQRAYRFVQGKDGGFKKFIRRDFLLDEANGLLPDDKLTLFCEVSVVQDSVNISGQNTMNMVKVPECRLADELGGLWENSRFTDCCLCVAGQEFQAHKAILAARSPVFSAMFEHEMEESKKNRVEINDVEPEVFKEMMCFIYTGKAPNLDKMADDLLAAADKYALERLKVMCEDALCSNLSVENAAEILILADLHSADQLKTQAVDFINYHASDVLETSGWKSMVVSHPHLVAEAYRSLASAQCPFLGPPRKRLKQS
B13: SPOP D130E (natural protein)
chain: MSRVPSPPPPAEMSSGPVAESWCYTQIKVVKFSYMWTINNFSFCREEMGEVIKSSTFSSGANDKLKWCLRVNPKGLDEESKDYLSLYLLLVSCPKSEVRAKFKFSILNAKGEETKAMESQRAYRFVQGKEWGFKKFIRRDFLLDEANGLLPDDKLTLFCEVSVVQDSVNISGQNTMNMVKVPECRLADELGGLWENSRFTDCCLCVAGQEFQAHKAILAARSPVFSAMFEHEMEESKKNRVEINDVEPEVFKEMMCFIYTGKAPNLDKMADDLLAAADKYALERLKVMCEDALCSNLSVENAAEILILADLHSADQLKTQAVDFINYHASDVLETSGWKSMVVSHPHLVAEAYRSLASAQCPFLGPPRKRLKQS
B14: SPOP E47K, full-length (natural protein)
chain: MSRVPSPPPPAEMSSGPVAESWCYTQIKVVKFSYMWTINNFSFCREKMGEVIKSSTFSSGANDKLKWCLRVNPKGLDEESKDYLSLYLLLVSCPKSEVRAKFKFSILNAKGEETKAMESQRAYRFVQGKDWGFKKFIRRDFLLDEANGLLPDDKLTLFCEVSVVQDSVNISGQNTMNMVKVPECRLADELGGLWENSRFTDCCLCVAGQEFQAHKAILAARSPVFSAMFEHEMEESKKNRVEINDVEPEVFKEMMCFIYTGKAPNLDKMADDLLAAADKYALERLKVMCEDALCSNLSVENAAEILILADLHSADQLKTQAVDFINYHASDVLETSGWKSMVVSHPHLVAEAYRSLASAQCPFLGPPRKRLKQS
B15: SPOP E78K, full-length (natural protein)
chain: MSRVPSPPPPAEMSSGPVAESWCYTQIKVVKFSYMWTINNFSFCREEMGEVIKSSTFSSGANDKLKWCLRVNPKGLDKESKDYLSLYLLLVSCPKSEVRAKFKFSILNAKGEETKAMESQRAYRFVQGKDWGFKKFIRRDFLLDEANGLLPDDKLTLFCEVSVVQDSVNISGQNTMNMVKVPECRLADELGGLWENSRFTDCCLCVAGQEFQAHKAILAARSPVFSAMFEHEMEESKKNRVEINDVEPEVFKEMMCFIYTGKAPNLDKMADDLLAAADKYALERLKVMCEDALCSNLSVENAAEILILADLHSADQLKTQAVDFINYHASDVLETSGWKSMVVSHPHLVAEAYRSLASAQCPFLGPPRKRLKQS

Biological target: the molecule itself
Assay: negative-stain TEM

Protein | binding result
B1 | binds
B2 | binds
B3 | binds
B4 | binds
B5 | binds
B6 | binds
B7 | binds
B8 | binds
B9 | binds
B10 | binds
B11 | binds
B12 | binds
B13 | binds
B14 | binds
B15 | binds
